B1: monomeric human Fas receptor extracellular domain (domain or fragment)
chain: QVTDINSKGLELRKTVTTVETQNLEGLHHDGQFCHKPCPPGERKARDCTVNGDEPDCVPCQEGKEYTDKAHFSSKCRRCRLCDEGHGLEVEINCTRTQNTKCRCKPNFFCNSTVCEHCDPCTKCEHGIIKECTLTSNTKCKEEGSRSN
B2: human Fas ligand, recombinant (ligand)
chain: QIGHPSPPPEKKELRKVAHLTGKSNSRSMPLEWEDTYGIVLLSGVKYKKGGLVINETGLYFVYSKVYFRGQSCNNLPLSHKVYMRNSKYPQDLVMMEGKMMSYCTTGQMWARSSYLGAVFNLTSADHLYVNVSELSLVNFEESQTFFGLYKL

The target in experiment [1] is B2. Nature of the experiment: SPR. A general note: Surface plasmon resonance follows binding to a sensor surface in real time, without labels.
In experiment [2] the target is B1. Nature of the experiment: cell-based or functional assay.
The target of experiment [3] is B1. Nature of the experiment: cell-based or functional assay. The source holds these as a separate data set.

With B1, the Kd (commonly the free concentration of one partner at which half of the binding sites on the other are occupied at equilibrium, for simple one-to-one binding) in experiment [1] was determined as 14 nM.
As for B2, in experiment [2], the “DNA fragmentation (oligonucleosomes in the cytosol) in Jurkat cells, 8 h, EC50” value worked out at 2.8 nM. In addition, the “Jurkat cell killing (cell-viability assay), EC50” value in experiment [3] was found to be 7.1 nM.

The values are drawn from PMC3374083 (Cell Death and Differentiation, 2012).
